From PMC8495200, “Domain Organization of the UBX Domain Containing Protein 9 and Analysis of Its Interactions With the Homohexameric AAA + ATPase p97 (Valosin-Containing Protein)” (Frontiers in Cell and Developmental Biology, 2021)
Where “and” joins values, the source holds several entries; their conditions need not be identical. Identical values can stand only once.

Target: the molecule itself
Test: native gel or EMSA; Blue Native PAGE, purified recombinant non-tagged proteins in 1 x PBS, 1 mM DTT, 1 mM ATP; 4-16% Bis-Tris gels, cold room, Coomassie staining

B1: p97 (valosin-containing protein), D. discoideum, recombinant (enzyme, UniProt P90532 1-793, looked up)
chain: MATIEDTSKDNNNPILERKKAPNRLFVEEAINDDNSVVTLNPETMDQLQFFRGDTLLIKGKKRRDTVCIVLSDPTIDPSKIRMNKVVRNNLRVRLGDMISVHQCSDVKYGKRIHVLPIDDTIEGLSGNLFDLYLKPYFLEAYRPVRKGDLFLVRGGMRAVEFKVVETDPGEYCIVAPETFIHCEGEAVKREDEDRLDEVGYDDIGGVRKQLGQIRELVELPLRHPQLFKNIGVKPPKGILLYGPPGCGKTMIARAVANETGAFFFLINGPEIMSKLAGESESNLRKAFEEAEKNAPSIIFIDEIDSIAPKREKTQGEVERRIVSQLLTLMDGLKSRAHVIVMGATNRPNSIDPALRRFGRFDREIDITIPDATGRLEIMRIHTKNMKLDETVDLEAVANETHGYVGADLAALCTESALQCIREKMDVIDLEDETISAEILESMSVTQDHFRTALTLSNPSALRETVVEVPTTTWEDIGGLEGVKRELRETVQYPVEHPEKFRKFGMQPSKGVLFYGPPGCGKTLLAKAIANECQANFISIKGPELLTMWFGESEANVRELFDKARQAAPCVLFFDELDSIARSRGSSQGDAGGAGDRVINQILTEMDGMNAKKNVFIIGATNRPDIIDPAILRPGRLDQLIYIPLPDLPSRVAILKACLNKSPVAKDVDLEFLGQKTQGFSGADLTEICQRACKLAIRESIEKDIESTKARQESGDTKMEDDSVDPVPEITRDHFQEAMRSARRSVSDNDIRKYESFAQTLVQSRGLGNNFKFPDQESSGQFNQDQSDDLFSN
notes: AAA+ ATPase p97 (VCP), D. discoideum; purification as in Rijal et al., 2016; Whether p97 was made as a GST fusion and cleaved is not clearly said; also called VCP; source: E. coli XL1 Blue or ArcticExpress, purified
stoichiometry N: 6 and 2

B2: UBXD9, full length, GST tag cleaved (natural protein, D. discoideum, UniProt Q54X06 1-573, looked up)
chain: MSSIHIIYKTGKTTVPVIASTVMMEVLKKACQYFKIDDSRFQLMYGSTYVNLSLPFRLSGIPNLSRVTIMEKKGASISTVKIAIQMDDGKRFQSNFKTSSTLWDILLTFETEQNLSLTKRFNDVNQYIEPVVTILNREISTIESLQKSSLASINVNEASLIKLTFKQTDRTNEEVLPIIVSYQSPSTPTESPTTTTTTTTTTTTNNTTKEESPKTTNSPTNSESSTKSQNSSGSQQSPIIISPPTQQSTSSDVSTPTMDIDSPLVKNVEKSPISDLGLNPSSNIPLPDKTYNNETTTTTTTTSNNDVQVSTPPKIATMDHKDRELLVYTPSNNQVDPKSIRHNEKMTEEDIKRLVEANKRVKKEKEEFDSVLRTKAMREREAYKKHKNFSTSIIRIVFPGGQKILEMKFLIREKISNLLKYINEYILAQPNDSVYLYTTPPNKTLDLNTTFLKEGLFPRAKIFLGVSPGTTLIFSELVNELIEESNNKNNNNNNNNNTTTTTTSTISQEELDKQEEEQERIEEQMKIEEEKQLKLEDEQEKERQRALRSMFNNEKEGDSQKRPVPKWFTAGKK
notes: The cleaved state is stated for the Blue Native PAGE; also called full-length UBXD9; source: E. coli XL1 Blue or ArcticExpress, purified, liberated from the beads with PreScission protease
stoichiometry N: 6
